Residue numbers refer to the chain shown, from its start.

Common to all, as to test: cell_activity; CHO iGFFP reporter
One series concerns the target T1, LOX 3-4m.1052 (artificial (I-CreI derived)).
T1 chain: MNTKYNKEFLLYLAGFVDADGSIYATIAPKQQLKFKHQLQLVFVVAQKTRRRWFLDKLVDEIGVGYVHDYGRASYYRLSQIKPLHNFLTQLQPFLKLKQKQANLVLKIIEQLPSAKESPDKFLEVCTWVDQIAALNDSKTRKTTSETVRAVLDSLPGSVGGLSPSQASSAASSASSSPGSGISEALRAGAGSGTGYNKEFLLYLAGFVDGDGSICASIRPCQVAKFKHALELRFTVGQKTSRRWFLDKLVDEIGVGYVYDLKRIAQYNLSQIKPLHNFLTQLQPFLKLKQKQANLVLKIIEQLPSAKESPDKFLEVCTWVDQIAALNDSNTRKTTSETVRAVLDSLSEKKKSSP
An excerpt: (§1) A CHO cell reporter system (see WO/2012/167192, FIG. 3) was used to determine whether the engineered meganucleases generated in these studies could recognize and cleave the modified LOX 3-4 recognition sequences in Table 87. To perform the assay, a pair of CHO cell reporter lines were produced, which carried a non-functional Green Fluorescent Protein (GFP) gene expression cassette integrated into the genome of the cell. The GFP gene in each cell line was interrupted by a pair of recognition sequences such that intracellular cleavage of either recognition sequence by a meganuclease would stimulate a homologous recombination event resulting in a functional GFP gene. In both cell lines, one of the recognition sequences was derived from the LOX 3-4 recognition sequence (i.e., those sequences disclosed in Table 87), and the second recognition sequence was specifically recognized by a control meganuclease called “CHO 23/24.” CHO reporter cells comprising a recognition sequence derived from the LOX 3-4 recognition sequence and the CHO 23/24 recognition sequence are referred to herein as “test cells.”
(§2) Novel engineered meganucleases derived from the LOX 3-4x.109 meganuclease were prepared by making amino acid substitutions at one or more positions in the first subunit and one or more positions in the second subunit. These engineered meganucleases were then evaluated for cleavage of the LOX 3-4 recognition sequence modified to have an ACGC center sequence (SEQ ID NO: 90) in the CHO reporter assay according to Example 1.

In a further series the target is T2, LOX 3-4m.1069 (artificial (I-CreI derived)).
T2 chain: T1 chain with G71R, S241E, K262G, I264V, Q271E, N330R
Text: as §1, §2

The next series has as its target T3, LOX 3-4m.1123 (artificial (I-CreI derived)).
T3 chain: T1 chain with K48S, Q80E, K239H, S241K, E252Q, K262G, A265T, N330H
Text: as §1, §2

The target in the next series is T4, LOX 3-4m.1125 (artificial (I-CreI derived)).
T4 chain: T1 chain with A19G, G210A, K239L, S241E, K262G, I264V, N330K
Text: as §1, §2

The target in a further series is T5, LOX 3-4m.1876 (artificial (I-CreI derived)).
T5 chain: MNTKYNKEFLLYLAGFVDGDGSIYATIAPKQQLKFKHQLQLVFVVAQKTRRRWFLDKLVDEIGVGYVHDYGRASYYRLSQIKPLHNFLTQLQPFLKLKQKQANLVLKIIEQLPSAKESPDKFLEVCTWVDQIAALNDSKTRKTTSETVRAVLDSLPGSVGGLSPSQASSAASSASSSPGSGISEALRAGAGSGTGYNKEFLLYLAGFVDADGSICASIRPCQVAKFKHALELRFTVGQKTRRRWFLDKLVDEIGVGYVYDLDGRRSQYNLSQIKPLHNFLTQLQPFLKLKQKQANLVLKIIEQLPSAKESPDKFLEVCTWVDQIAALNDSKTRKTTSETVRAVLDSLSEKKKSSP
Text: as §1
(§3) Novel engineered meganucleases derived from the LOX 3-4x.109 meganuclease were prepared by making amino acid substitutions at one or more positions in the first subunit and one or more positions in the second subunit. In addition, an R residue was inserted following position 264, which corresponds to position 73 of wild-type I-CreI.

In a further series the target is T6, LOX 3-4m.1941 (artificial (I-CreI derived)).
T6 chain: T5 chain
Text: as §1, §3

For the next series, the target named is T7, LOX 3-4m.1947 (artificial (I-CreI derived)).
T7 chain: T5 chain
Text: as §1, §3

Another series deals with T8, LOX 3-4m.1946 (artificial (I-CreI derived)).
T8 chain: T5 chain
Text: as §1, §3

For a further series, the target named is T9, LOX 3-4m.1153 (artificial (I-CreI derived)).
T9 chain: T1 chain with R50C, K239S, S241E, K262G, R263K, I264A, N330K
Text: as §1
(§4) Novel engineered meganucleases derived from the LOX 3-4x.109 meganuclease were prepared by making amino acid substitutions at one or more positions in the first subunit and one or more positions in the second subunit. These engineered meganucleases were then evaluated for cleavage of the LOX 3-4 recognition sequence modified to have an ACGT center sequence (SEQ ID NO: 136) in the CHO reporter assay according to Example 1.

Another series deals with T10, LOX 3-4m.1158 (artificial (I-CreI derived)).
T10 chain: T1 chain with Q80E, K239S, S241C, K262G, R263K, I264A, A265S, N330K
Text: as §1, §4

Another series addresses T11, LOX 3-4m.1225 (artificial (I-CreI derived)).
T11 chain: T1 chain with R50C, K239S, S241A, K262G, I264A, N330K
Text: as §1, §4

A further series concerns the target T12, LOX 3-4m.1206 (artificial (I-CreI derived)).
T12 chain: T1 chain with A19G, R50C, G210A, K239S, S241E, K262G, R263K, I264C, A265T, N330K
Text: as §1, §4

B1: LOX 3-4 ACGC (dsDNA)
DNA 1: GTATAGCATACGCTATACGAAG
DNA 2: CTTCGTATAGCGTATGCTATAC
As for B1, the activity with LOX 3-4m.1052 came out at 9.34 % GFP; with LOX 3-4m.1069 it was 10.3 % GFP; in the series with LOX 3-4m.1123, 9.56 % GFP; with LOX 3-4m.1125 it was 10.4 % GFP.

B2: LOX 3-4 ACGG (dsDNA)
DNA 1: GTATAGCATACGGTATACGAAG
DNA 2: CTTCGTATACCGTATGCTATAC
B2: the activity with LOX 3-4m.1876 was 9.6 % GFP; in the series with LOX 3-4m.1941, 10.1 % GFP; with LOX 3-4m.1947, 10.5 % GFP; in the series with LOX 3-4m.1946 it was 10.8 % GFP.

B3: LOX 3-4 ACGT (dsDNA)
DNA 1: GTATAGCATACGTTATACGAAG
DNA 2: CTTCGTATAACGTATGCTATAC
Consider B3, for which the activity with LOX 3-4m.1153 stood at 10.3 % GFP; with LOX 3-4m.1158, 9.19 % GFP; with LOX 3-4m.1225 it was 10.6 % GFP; with LOX 3-4m.1206 it was 9.84 % GFP.

These data come from patent publication US20220195407, “OPTIMIZATION OF ENGINEERED MEGANUCLEASES FOR RECOGNITION SEQUENCES” (Precision BioSciences, Inc., published 2022).
